# Measured values reported in patent US9623039B2, “Treatment and prevention of pathological conditions using iduna related techniques and compositions” (VALTED, LLC, priority 2010, dated 2017).
# B1: Iduna: novel NMDA-induced cell survival protein, PAR-dependent E3 ligase; 359 amino acids (protein)
# chain: MEMAGCGEIDHSINMLPTNKKANESCSNTAPSLTVPECAICLQTCVHPVSLPCKHVFCYLCVKGASWLGKRCALCRQEIPEDFLDKPTLLSPEELKAASRGNGEYAWYYEGRNGWWQYDERTSRELEDAFSKGKKNTEMLIAGFLYVADLENMVQYRRNEHGRRRKIKRDIIDIPKKGVAGLRLDCDTNTVNLARESSADGADSGSAQTGASVQLAVPSSTRPLTSVDGQLTSPVTPSPDAGISLEDSFAHLQLSGDSIAERSHRGEGEEDHESPSSGRVPDTSVEETESDASSDSEDAPVVVAQHSLTQQRPLVPNGNQTVADQSDRSGTDRSVAGGGTMSVNVRSRRPDGQCTVIEV
# Experiments:
# cortical neurons = test: Calcium imaging and mitochondrial Ca2+ uptake; assay type: cell-based, mouse
# Procedure: Calcium Imaging: Neuronal cells were plated on 17 mm glass cover slips, pre-coated with poly-L-ornithine (0.1 mg/ml). On DIV 14, the cultures were loaded with calcium sensitive dye Fluo-5f (2.5 μM, dissolved in pleuronic acid/DMSO solution) for 45 min at 37° C. and thereafter placed on a thermostatically confocal microscopic stage (Carl Zeiss). HEPES balanced salt solution (HBSS: NaCl 137 mM, KCl 5 mM, HEPES 20 mM, glucose 10 mM, CaCl2 1.4 mM, NaHCO3 3 mM, Na2HPO4 0.6 mM, KH2PO4 0.4 mM, pH 7.4) was superfused to the cultures for 100 s to obtain a steady base-line. NMDA (500 μM for 5 min) was used to induce intracellular calcium influx. Florescence values were monitored at every 10 s and calculated using LSM 510 Meta software and represent the changes in cellular calcium.
# Measurements of Mitochondrial Ca^2+-uptake Capacity: Extramitochondrial free Ca^2+ was monitored in the presence of isolated mitochondria or digitonin-permeabilized cells, using an indicator of extramitochondrial free Ca^2+ (Calcium green-5N, Invitrogen). […] Fluorescence was continuously monitored at an excitation/emission at 488/532 nm respectively. […] Ca^2+ uptake was monitored by addition of 50 μM CaCl2 to the assay medium using a Hamilton syringe.
# AIF = test: NMDA-induced AIF translocation in cortical neurons; assay type: cell-based, mouse; conditions: excitotoxic NMDA
# Description: Parthanatos involves the translocation of apoptosis inducing factor (AIF) from the mitochondria to the nucleus following NMDA excitotoxicity. AIF translocation following excitotoxic NMDA treatment was monitored by immunohistochemistry and confocal microscopy (FIG. 50) and by immunoblot analysis of nuclear and mitochondrial subcellular fractions (FIG. 51).
# PARP-1 = target: T1, PARP-1 (Homo sapiens, UniProt P09874); test: Chemiluminescent PARP assay (biotinylated PAR onto histone); assay type: biochemical; conditions: incorporation of biotinylated PAR onto histone proteins
# T1 construct: purchased Trevigen
# Procedure: Because PARP-1 activation plays a prominent role in NMDA excitotoxicity we tested whether PARP-1 activity is directly affected by Iduna. PARP-1 activity was assessed by incorporation of biotinylated PAR onto histone proteins.
# Chemiluminescent PARP assay for poly(ADP-ribosyl)ation of Histone H1: Activity of PARP-1 was determined by Trevigen Universal chemiluminescent PARP assay kit (Trevigen, Gaithersburg, Md., USA) in the presence of Iduna or the PARP-1 inhibitor 3-aminobenzamide (3-AB). According to manufacturer's instructions, the incorporation of biotinylated NAD+ (Trevigen) into the poly(ADP-ribose) polymer primed at solid phase immobilized histone H1 (Trevigen) was detected by the chemiluminescent assay, either in the presence or absence of recombinant Iduna. Reactions were performed with 34 μM total biotinylated NAD+ for 60 min at 25° C. in triplicates. Chemiluminescence was measured using a fluorescence multi-well plate reader (SOSTmax, Sunnyvale, Calif.) with an excitation at 544 nm excitation/590 nm emission. In the parallel wells, PARP1 activity was measured after the 3-aminobenzamide treatment at the same concentration of biotinylated NAD+ (34 μM).
# MCF7 cells [1] = test: Alkaline comet assay after γ-irradiation; assay type: cell-based, human; conditions: γ-irradiation 2 Gy, 15 min
# Procedure: Comet assay. Single cell gel electrophoresis assay was performed by following the manufacturer's instructions. Briefly, established stable cell lines were irradiated (2 Gy) with a Gammacell irradiator and then further incubated for 15 min at 37° C. Cells were collected at 500×g at 4° C. and rinsed twice with ice cold PBS (Ca++ and Mg++ free). A total of 5×10^5 cells were counted and resuspended into PBS (Ca++ and Mg++ free) and then combined with LMAgarose (low melting agarose) at a ratio 1:10 (v/v). Each sample was spotted into CometSlide™ and lysed with buffer (supplied with CometAssay Kit, Trevigen) for 1 h at 4° C. After draining the excess lysis buffer, slides were immersed with alkaline unwinding solution (200 mM NaOH, pH>13, 1 mM EDTA) for 1 h at RT. To the single cell electrophoresis, each comet slide was placed in electrophoresis slide tray with 1 L of alkaline unwinding solution and applied to 21 Volts for 30 min for electrophoresis. After draining the excess electrophoresis buffer, slides were rinsed twice with dH2O and then fixed with 70% ethanol for 5 min. To facilitate single cell observation, slides were dried at 40° C. and stained with SYBR Green I (supplied with CometAssay Kit) for 5 min at 4° C. […] Fifty cells per slide were monitored and the DNA damage was calculated using comet tail length and head diameter parameters.
# MCF7 cells [2] = test: Determination of apurinic/apyrimidinic (AP) sites; assay type: cell-based, human; conditions: 1 h
# Procedure: Determination of apurinic/apyrimidinic (AP) sites. The amount of AP sites in genomic DNA was monitored by a DNA damage quantification kit (BioVision). Briefly, cells were treated with either DMSO or 500 μM MNNG for 15 min, and then replaced with normal growth media. After 1 h, cells were scraped and harvested at 500×g for 5 min and washed once with PBS. Genomic DNA was isolated using a Biovision Genomic DNA Isolation Kit (BioVision) and then AP sites on the 0.5 μg of genomic DNA was labeled with biotin by the Aldehyde Reactive Probe (ARP) reagent (supplied with the DNA damage quantification kit) for 1 h at 37° C. To precipitate the biotin-tagged DNA, sample was mixed with TE buffer containing 2% glycogen and then sequentially incubated with ice cold 70% ethanol for 30 min at −20° C. […] To determine of the number of AP sites in DNA, samples were dissolved in TE buffer and then transferred into 96 well plate with DNA binding buffer (supplied with the DNA damage quantification kit). After 12 h, samples were washed five times with DNA washing buffer (supplied with the DNA damage quantification kit) and then biotin labeled AP sites were quantified using an avidin-biotin assay. Each sample and standards (supplied with a DNA damage quantification kit) were run in triplicate and the OD was measured at 650 nm using a 96-well plate reader (SpectraMax Plus384 Microplate Reader).
# T1 sequence (P09874 whole entry): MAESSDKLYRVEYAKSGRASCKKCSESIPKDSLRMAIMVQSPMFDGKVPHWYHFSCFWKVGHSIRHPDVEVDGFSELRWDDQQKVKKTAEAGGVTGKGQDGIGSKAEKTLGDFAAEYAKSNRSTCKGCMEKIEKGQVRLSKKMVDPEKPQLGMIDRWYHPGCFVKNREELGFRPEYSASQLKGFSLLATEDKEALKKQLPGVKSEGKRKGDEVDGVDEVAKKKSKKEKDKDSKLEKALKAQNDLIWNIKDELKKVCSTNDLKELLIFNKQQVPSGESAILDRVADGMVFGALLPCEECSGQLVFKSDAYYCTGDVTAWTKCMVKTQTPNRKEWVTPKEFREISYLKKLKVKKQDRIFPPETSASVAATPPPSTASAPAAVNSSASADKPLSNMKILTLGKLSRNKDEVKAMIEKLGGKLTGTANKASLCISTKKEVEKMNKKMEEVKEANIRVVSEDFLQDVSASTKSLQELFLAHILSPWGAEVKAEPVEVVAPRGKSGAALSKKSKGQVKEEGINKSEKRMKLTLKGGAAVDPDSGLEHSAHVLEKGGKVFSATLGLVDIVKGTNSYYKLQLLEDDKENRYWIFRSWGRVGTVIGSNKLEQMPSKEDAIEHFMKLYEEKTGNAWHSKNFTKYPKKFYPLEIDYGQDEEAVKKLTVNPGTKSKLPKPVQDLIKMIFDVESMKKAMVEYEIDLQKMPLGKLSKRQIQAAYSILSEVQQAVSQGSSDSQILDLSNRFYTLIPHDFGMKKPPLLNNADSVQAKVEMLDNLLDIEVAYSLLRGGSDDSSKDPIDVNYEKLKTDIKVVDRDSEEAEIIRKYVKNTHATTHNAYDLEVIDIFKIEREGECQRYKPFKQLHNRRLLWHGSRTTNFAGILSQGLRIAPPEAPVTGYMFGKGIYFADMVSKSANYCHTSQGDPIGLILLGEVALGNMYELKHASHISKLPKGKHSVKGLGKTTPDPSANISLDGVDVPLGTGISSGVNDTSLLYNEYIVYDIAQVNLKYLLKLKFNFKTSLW
molecule,measurement,setting,value
B1,mitochondrial calcium uptake,cortical neurons; Calcium green-5N,does not interfere with mitochondrial calcium uptake
same,NMDA-induced calcium influx,"cortical neurons; fluo-5F, NMDA 500 μM 5 min",does not interfere with NMDA-induced intercellular calcium influx
same,AIF translocation to the nucleus,AIF,reduces the translocation of AIF
same,PARP-1 activity,PARP-1,has no effect
same,comet head diameter and tail length,MCF7 cells [1],dramatically prevents the reduction in head diameter and increase in tail length
same,increase in AP sites after MNNG,MCF7 cells [2],completely prevented
